Data set [1] has as its target T1, THAP1 THAP domain WT (human, UniProt Q9NVV9 1-81).
T1 sequence: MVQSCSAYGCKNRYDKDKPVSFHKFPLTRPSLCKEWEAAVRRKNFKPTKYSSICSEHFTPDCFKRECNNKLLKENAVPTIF
Kind of data set: fluorescence quenching.

Data set [2] addresses T2, THAP1 THAP domain N12K (human, UniProt Q9NVV9 1-81, N12K).
T2 sequence: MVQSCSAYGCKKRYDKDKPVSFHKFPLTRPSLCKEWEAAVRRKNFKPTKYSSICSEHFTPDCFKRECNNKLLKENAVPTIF
Kind of data set: fluorescence quenching.

The target of data set [3] is T1, THAP1 THAP domain WT. Kind of data set: ITC. In general terms: Isothermal titration calorimetry measures the heat released or taken up as one component is titrated into another.
The target of data set [4] is T2, THAP1 THAP domain N12K. Kind of data set: ITC.
Data set [5] concerns the target T3, THAP1 THAP domain Y8C (human, UniProt Q9NVV9 1-81, Y8C).
T3 sequence: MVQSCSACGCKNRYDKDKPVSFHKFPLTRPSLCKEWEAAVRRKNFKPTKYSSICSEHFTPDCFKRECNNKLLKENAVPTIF
Kind of data set: fluorescence quenching.

For the next data set, the target named is T4, THAP1 THAP domain D17G (human, UniProt Q9NVV9 1-81, D17G).
T4 sequence: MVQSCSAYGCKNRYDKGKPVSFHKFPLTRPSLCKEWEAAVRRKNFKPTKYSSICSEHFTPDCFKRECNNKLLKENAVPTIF
Nature of the data set: fluorescence quenching.

The target of data set [6] is T5, THAP1 THAP domain F81L (human, UniProt Q9NVV9 1-81, F81L).
T5 sequence: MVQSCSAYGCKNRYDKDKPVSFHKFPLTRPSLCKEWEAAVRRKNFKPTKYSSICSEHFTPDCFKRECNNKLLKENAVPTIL
Kind of data set: fluorescence quenching.

Data set [7] has as its target T3, THAP1 THAP domain Y8C. Kind of data set: ITC.
Data set [8] has as its target T5, THAP1 THAP domain F81L. Kind of data set: ITC.

B1: 14-bp non-specific DNA (ns) (dsDNA)
DNA 1: GATTTGCATTTTAA
DNA 2: TTAAAATGCAAATC
The term Kd denotes the concentration at which binding is half-saturated. A higher Kd goes with a looser complex. For B1, the Kd with THAP1 THAP domain WT [1] stood at 1800 ± 150 nM; with THAP1 THAP domain N12K [2] it was 400 ± 65 nM; in the data set with THAP1 THAP domain WT [3] it was 8930 ± 1280 nM; in the data set with THAP1 THAP domain N12K [4], 1750 ± 500 nM.

B2: RRM1 16-bp DNA probe (dsDNA)
DNA 1: GCTTGTGTGGGCAGCG
DNA 2: CGCTGCCCACACAAGC
For B2, the dissociation constant Kd was 150 ± 10 nM in the data set with THAP1 THAP domain WT [1]; 230 ± 20 nM with THAP1 THAP domain Y8C [5]; 25 ± 5 nM in the data set with THAP1 THAP domain D17G; 100 ± 10 nM in the data set with THAP1 THAP domain F81L [6]; 540 ± 190 nM with THAP1 THAP domain WT [3]; 510 ± 100 nM with THAP1 THAP domain Y8C [7]. The molecule also returned a Kd with THAP1 THAP domain F81L [8] of 700 ± 60 nM.

Source of the values: article PMC3479173.
